Measurements reported in US11732043 (MERUS N V, dated 2023).
Positions count from the first letter of the chain named. Read-outs that look alike come from different tables or passages of the source.

B1: bivalent LAG-3 IgG with MF7185 variable domains (antibody, V domains shown)
VH: QVQLVQSGAEVKKPGSSVKVSCKTSGGTFSNYAFSWVRQAPGQGLEWMGGIIPIFGSTNYAQSFQGRVTITADKSTSTAYMELSSLRSEDTAVYYCARDREMGTLYFFDQWGQGTTVTVSS
VL: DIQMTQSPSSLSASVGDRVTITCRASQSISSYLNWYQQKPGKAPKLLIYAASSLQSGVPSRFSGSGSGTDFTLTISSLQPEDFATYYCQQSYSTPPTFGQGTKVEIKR
B2: bivalent LAG-3 IgG with MF7518 variable domains (antibody, V domains shown)
VH: QVQLVQSGAEVKKPGASVKVSCKASGYTFTSYGISWVRQAPGQGLEWMGWISAYSGNTNYAQKLQGRVTMTTDTSTSTAYMELRSLRSDDTAVYYCARDGSGWDDFDYWGQGTLVTVSS
VL: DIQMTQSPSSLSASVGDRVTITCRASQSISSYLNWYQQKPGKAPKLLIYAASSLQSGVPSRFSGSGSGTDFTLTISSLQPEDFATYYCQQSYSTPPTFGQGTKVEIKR
B3: bivalent LAG-3 IgG with MF7096 variable domains (antibody, V domains shown)
VH: QVQLQESGPGLVRPSETLSLTCTVSGGSISSYSWSWIRQPPGKGLEWIGYIDYSGSTNYNPSLKSRVTISVDTSKTQFSLKLSSVSAADTAVYYCAKDLLYKWNYVEGFDIWGQGTTVTVSS
VL: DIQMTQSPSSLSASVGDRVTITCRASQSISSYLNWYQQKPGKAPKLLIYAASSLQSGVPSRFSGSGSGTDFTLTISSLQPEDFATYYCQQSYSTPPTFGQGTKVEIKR
B4: bivalent LAG-3 IgG with MF7097 variable domains (antibody, V domains shown)
VH: B3 VH with R13K, S56T, Y59F, T117M
VL: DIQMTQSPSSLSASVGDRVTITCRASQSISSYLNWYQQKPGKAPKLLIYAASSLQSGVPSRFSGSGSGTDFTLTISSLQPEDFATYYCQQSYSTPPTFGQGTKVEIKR
B5: bivalent LAG-3 IgG with MF7111 variable domains (antibody, V domains shown)
VH: QVQLQESGPGLVKPSETLSLTCTVSDDSISDYYWSWIRQPPGKGLEWIGYIYYSGNTKYNPSLKNRVTISVDTSKSQFSLKLTSVTAADTAVYYCARIPLTGEFDYWAQGTLVTVSS
VL: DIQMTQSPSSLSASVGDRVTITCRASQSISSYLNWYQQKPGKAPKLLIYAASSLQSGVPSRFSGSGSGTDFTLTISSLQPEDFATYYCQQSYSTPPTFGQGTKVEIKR
B6: bivalent LAG-3 IgG with MF7100 variable domains (antibody, V domains shown)
VH: EVQLVESGGGVVQPGRSLRLSCAASGFTFSSYDTHWVRQAPGKGLEWVAVISYDGSNKYYADSVKGRFTISRDNSKNTLYLQMNSLRAEDTAMYYCARERGWDVFDIWGQGTLVTVSS
VL: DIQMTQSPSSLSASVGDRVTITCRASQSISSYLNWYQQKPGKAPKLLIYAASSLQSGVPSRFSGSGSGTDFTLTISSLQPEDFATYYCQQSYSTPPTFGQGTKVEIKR
B7: bivalent LAG-3 IgG with MF7134 variable domains (antibody, V domains shown)
VH: EVQLVQSGSELKKPGASVKVSCKASGYTFTTNALNWVRQAPGQGLEWMGWINTHTGNPTYAQGFIGRFVFSLDTSVSTAYLQIRSLKAEDTAVYYCAREPNWGVYFDYWGQGTLVTVSS
VL: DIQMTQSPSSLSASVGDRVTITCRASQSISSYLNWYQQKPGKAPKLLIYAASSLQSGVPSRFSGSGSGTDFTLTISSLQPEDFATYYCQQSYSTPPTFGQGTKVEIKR
B8: PG7116, bivalent LAG-3 IgG with two MF7116 variable domains (antibody, V domains shown)
VH: EVQLVESGGGVVQPGRSLRLSCAASGFTFSSYGMHWVRQAPGKGLEWVAVISYHGSDKYYADSVKGRFTISRDNSKNTLYLQMNSLRAEDTAVYYCARDGDNWDVFDIWGQGTLVTVSS
VL: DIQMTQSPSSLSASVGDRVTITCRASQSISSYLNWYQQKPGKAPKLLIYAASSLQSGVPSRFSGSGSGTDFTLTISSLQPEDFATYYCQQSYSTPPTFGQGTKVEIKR
notes: Bivalent monospecific IgG
B9: bivalent LAG-3 IgG with MF7165 variable domains (antibody, V domains shown)
VH: QVQLVQSGAEVRKPGASVKVSCKVSGYTLTELSIHWVRQAPGKGLEWMGAFDPEDGETIYAQKFQGRVTMTEDTSTDTAYMELSSLRSEDTAVYFCATGGTYYYGSGSYYTLDYWGQGTLVTVSS
VL: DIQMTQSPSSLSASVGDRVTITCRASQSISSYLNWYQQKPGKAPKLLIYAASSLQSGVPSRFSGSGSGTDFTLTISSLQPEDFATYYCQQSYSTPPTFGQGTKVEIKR
notes: Bivalent monospecific IgG; copies: 2 + 2
B10: bivalent LAG-3 IgG with MF7137 variable domains (antibody, V domains shown)
VH: QVQLVQSGAEVKRPGASVKVSCKVSGYTLTELSMHWVRQAPGKGLEWMGGSDPEHGETVDAQKFQGRVTMTEDTSTDTAYMELSSLRSEDTAVYYCTTGGTYYYGSGSYYTLDFWGQGTLVTVSS
VL: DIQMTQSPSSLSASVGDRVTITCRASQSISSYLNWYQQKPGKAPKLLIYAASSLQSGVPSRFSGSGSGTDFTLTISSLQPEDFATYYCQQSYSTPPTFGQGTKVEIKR
B11: bivalent LAG-3 IgG with MF7106 variable domains (antibody, V domains shown)
VH: QVQLVQSGAEVKKPGSSVKVSCKASGGTFSKYVVSWVRQAPGQGFDWMGGIIPMFGTANYAQMFQGRVTITADKSTSTVNMELSSLRSEDTAVYYCVRDKAVAGLYYFDSWGQGTLVTVSS
VL: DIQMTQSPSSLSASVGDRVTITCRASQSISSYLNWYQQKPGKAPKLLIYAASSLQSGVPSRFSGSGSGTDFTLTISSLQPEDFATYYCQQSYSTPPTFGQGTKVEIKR
B12: bivalent LAG-3 IgG with MF7118 variable domains (antibody, V domains shown)
VH: EVQLVESGGGLVQPGGSLRLSCAASGFTFSSYAMSWVRQAPGKGLEWVSSISGGGVSTFYADSVKGRFTISRDNSKNTLYLQMNSLRAEDTAVYYCAIVPAAATPSGTYYWIFDLWGRGTLVTVSS
VL: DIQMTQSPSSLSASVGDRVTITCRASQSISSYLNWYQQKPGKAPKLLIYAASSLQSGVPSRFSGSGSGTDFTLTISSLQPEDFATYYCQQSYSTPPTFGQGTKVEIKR
B13: bivalent LAG-3 IgG with MF7167 variable domains (antibody, V domains shown)
VH: EVQLVESGGGLVQPGGSLRLSCAASGFTFSSYAMNWVRQAPGKGLEWVSTISGSGVSTYYADSVKGRFTISRDNSKNTLYLQMNTLRAEDTAVYYCAKDRGYDYSGSYHNWFDPWGQGTLVTVSS
VL: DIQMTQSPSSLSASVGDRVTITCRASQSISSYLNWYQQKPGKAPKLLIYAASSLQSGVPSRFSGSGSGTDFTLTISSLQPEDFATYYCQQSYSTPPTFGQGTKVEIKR
B14: MG7139 (monovalent) (bispecific antibody, V domains shown)
VH 1: QVQLVQSGAEVKKPGSSVKVSCKASGGTFSNFAFSWVRQAPGQGLEWMGGIIPMFDTAKYAQKFQGRVTIIADKSTNTAYMDLNSLRSEDTAVYYCVRDRAIGTLYYFDYWGQGTLVTVSS
VH 2: not shown
VL: not shown
B15: MG7524 (monovalent) (bispecific antibody, V domains shown)
VH 1: QVQLVQSGAEVKKPGASVKVSCKASGYTFTSYGISWVRQAPGQGLEWMGWISAYSGNTNYAQKLQGRVTMTTDTSTSTAYMELRSLRSDDTAVYYCARGSILAAQMWGDIWGQGTLVTVSS
VH 2: not shown
VL: not shown
B16: MG7133 (monovalent) (bispecific antibody, V domains shown)
VH 1: EVQLVQSGAEVKKPGSSVKVSCKASGGTFSSHAISWVRQVPGQGLEWMGGIIPLFDTAKNAQKFQGRVTITADKSTSTAYMELSSLRSEDTAVYYCARDRETGTLYYFDYWGQGTLVTVSS
VH 2: not shown
VL: not shown
B17: MG7144 (monovalent) (bispecific antibody, V domains shown)
VH 1: QVQLVQSGAEVRKPGSSVMVSCKASGGTFSTYAINWLRQAPGQGLEWMGGIIPIFGTPYYGQRFQGRVTITADKSTNTVFMELSSLRSEDTAIYYCARDRDSGGLYYFDSWGQGTLVTVSS
VH 2: not shown
VL: not shown
B18: MG7185 (monovalent) (bispecific antibody, V domains shown)
VH 1: B1 VH
VH 2: not shown
VL: not shown
B19: MG7137 (monovalent) (bispecific antibody)
VH 1: B10 VH
VH 2: not shown
light: not shown
B20: MG7106 (monovalent) (bispecific antibody)
VH 1: B11 VH
VH 2: not shown
light: not shown
B21: H4sH15482P* (antibody, V domains shown)
VH: QVQLVESGGGVVQPGRSLRLSCVASGFTFSSYGMHWVRQAPGKGLEWVAIIWYDGSNKYYADSVKGRFTISRDNSKNTQYLQMNSLRAEDTAVYYCASVATSGDFDYYGMDVWGQGTTVTVSS
VL: EIVLTQSPATLSLSPGERTTLSCRASQRISTYLAWYQQKPGQAPRLLIYDASKRATGIPARFSGSGSGTGFTLTISSLEPEDFAVYYCQQRSNWPLTFGGGTKVEIKR
B22: bivalent LAG-3 IgG with MF7146 variable domains (antibody, V domains shown)
VH: EVQLVQSGAEVKKPGSSVKVSCKASGGTFNNYFITWVRQAPGQGLEWMGGIIPSFGTGNYAQKFQGRVAITADKSTNTAYMELSSLRSEDTAIYYCVRDREVGAIYYFDYWGQGTMVTVSS
VL: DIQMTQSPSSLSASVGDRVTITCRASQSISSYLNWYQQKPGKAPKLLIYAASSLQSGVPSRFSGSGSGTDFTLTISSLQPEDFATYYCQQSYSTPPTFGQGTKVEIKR
notes: as for B9
B23: bivalent LAG-3 IgG with MF7515 variable domains (antibody, V domains shown)
VH: QVQLVQSGAEVKKPGASVKVSCKASGYTFTSYGISWVRQAPGQGLEWMGWISAYSGNTNYAQKLQGRVTMTTDTSTSTAYMELRSLRSDDTAVYYCARRPGPALGDLDSWGQGTLVTVSS
VL: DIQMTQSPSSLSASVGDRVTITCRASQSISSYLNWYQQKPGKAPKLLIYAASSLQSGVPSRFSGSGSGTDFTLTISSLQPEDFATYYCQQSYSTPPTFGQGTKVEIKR
notes: as for B9

Tests used:
[1] = target: T1, LAG-3 overexpressed on Jurkat/NFAT-RE reporter cells (Promega) (UniProt P18627 23-525); assay: cell-based or functional assay
T1 sequence (looked up): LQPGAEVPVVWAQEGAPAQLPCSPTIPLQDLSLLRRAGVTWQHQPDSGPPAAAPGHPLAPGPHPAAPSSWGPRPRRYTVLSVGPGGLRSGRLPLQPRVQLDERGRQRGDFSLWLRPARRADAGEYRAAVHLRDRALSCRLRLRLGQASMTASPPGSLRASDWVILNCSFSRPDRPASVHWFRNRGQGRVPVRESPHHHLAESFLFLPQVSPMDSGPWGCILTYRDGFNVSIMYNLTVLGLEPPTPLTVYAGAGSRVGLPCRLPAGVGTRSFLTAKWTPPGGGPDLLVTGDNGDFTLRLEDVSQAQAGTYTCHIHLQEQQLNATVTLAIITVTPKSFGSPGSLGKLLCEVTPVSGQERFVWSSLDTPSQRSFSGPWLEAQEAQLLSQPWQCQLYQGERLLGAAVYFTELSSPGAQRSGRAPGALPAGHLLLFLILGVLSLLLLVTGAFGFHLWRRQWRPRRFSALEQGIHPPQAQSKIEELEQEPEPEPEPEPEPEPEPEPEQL

[2] = target: T2, human LAG-3 (huLAG-3), full length, expressed on the cell surface (human, UniProt P18627 23-525)
T2 construct: also called 293FF-LAG-3
T2 sequence: T1 sequence (looked up)

[3] = target: T2, human LAG-3 (huLAG-3), full length, …; assay: FACS on HEK293T cells with mouse/human LAG-3 hybrid constructs, bivalent IgG; bin = human domain bound
[4] = target: T2, human LAG-3 (huLAG-3), full length, …
[5] = target: T2, human LAG-3 (huLAG-3), full length, …; remark: listed apart in the source

| Binder | LAG-3 blockade reporter assay (Jurkat LAG-3 reporter cells with Raji MHCII cells), activity as bivalent IgG, AUC [1] | EC50 [4] | further results |
| --- | --- | --- | --- |
| B1 | 20.9 % of control | – | – |
| B2 | 64.7 % of control | – | – |
| B3 | 35.7 % of control | – | – |
| B4 | 21.4 % of control | – | – |
| B5 | 51.2 % of control | – | – |
| B6 | 39.8 % of control | – | – |
| B7 | 34.3 % of control | – | – |
| B8 | 57.1 % of control | – | EC50 (read off the curve) [2]: ~0.1 µg/mL |
| B9 | – | – | binding result [3]: binds |
| B10 | 51.2 % of control | – | – |
| B11 | 16.3 % of control | – | – |
| B12 | 2.04 % of control | – | – |
| B13 | -1.33 % of control | – | – |
| B14 | – | 5.71 µg/mL | – |
| B15 | – | 4.2 µg/mL | – |
| B16 | – | 11.2 µg/mL | – |
| B17 | – | 10.2 µg/mL | – |
| B18 | – | 4.49 µg/mL | – |
| B19 | – | 1.68 µg/mL | – |
| B20 | – | 26.5 µg/mL | – |
| B21 | – | – | EC50 (read off the curve) [5]: ~0.1 µg/mL |
| B22 | – | – | binding result [3]: binds |
| B23 | – | – | binding result [3]: binds |
